From US20220127350A1 (NUMAB THERAPEUTICS, published 2022) come the findings set out here.

A value given as a limit tells only on which side of the number the result lay.

Test [1] concerns the target T1, human IL-17A (human, UniProt Q16552 24-155).
T1 construct: Recombinant human IL-17A (Peprotech Cat. No. 200-17), disulfide-linked homodimer from E. coli; Biotinylated or RPE-labelled in some assays; also called hIL-17A; IL-17A-RPE (labelled)
The test is described as follows: SPR (summary table), affinity to human IL-17, capture setup.
Description: (§1) In this experiment, the biotinylated antigens were captured using the Biotin-CAPture kit from Biacore. After each analyte injection cycle the CAP sensor chip was regenerated and new antigen was captured. Trispecific molecules were injected as analyte using a dose response multicycle kinetic assay with concentrations of the analyte ranging from 0.35 to 90 nM diluted in running buffer. Obtained sensorgrams were fitted using the 1:1 binding model.

Test [2] deals with T2, human serum albumin (human, UniProt P02768 25-609).
T2 construct: also called HSA
The test can be described thus: SPR (MASS-1), HSA immobilised, trispecific as analyte, pH 7.4.
Description: (§2) The binding to human serum albumin (HSA) and cynomolgus serum albumin (CSA) was assessed for purified trispecific molecules by running SPR spectroscopy on a MASS-1 device (Sierra Sensors). HSA was directly immobilized on a high capacity amine sensor chip (Sierra Sensors) and trispecific molecules were injected as analyte using a dose response multicycle kinetic assay with concentrations of the analyte ranging from 0.35 to 90 nM diluted either in running buffer at pH5.5 or pH7.5. Obtained sensorgrams were fitted using the 1:1 binding model. Affinity to CSA was assessed in a similar approach using a CSA immobilized sensor chip.

The target in test [3] is T2, human serum albumin. The test can be described thus: SPR (MASS-1), trispecific immobilised, antigens injected sequentially.
Description: (§3) All possible sequences of antigen injection were tested resulting in six possible sequences.
(§4) To evaluate concomitant binding of each antigen to trispecific molecules, the binding level relative to the theoretical Rmax was calculated for each injection using the respective ligand and analyte molecular masses and the immobilization level of the trispecific molecules. The average of the maximum binding relative to theoretical Rmax for each antigen was obtained by averaging individual maximum binding relative to theoretical Rmax obtained for the two injections where the respective antigen was injected as first analyte (in the absence of other bound antigens). Next, the binding relative to the theoretical Rmax of each analyte injection was compared to its average maximum binding to calculate the fraction binding obtained in the presence of other bound antigens. […] The binding levels relative to the theoretical Rmax and the average of maximum binding (binding levels in the absence of other antigens) of each antigen were calculated.
Test [4] concerns the target T1, human IL-17A. The test is described as above.
Description: as §3, §4
Test [5] has as its target T3, human TNFα (human, UniProt P01375 77-233).
T3 construct: Biotinylated in the Biacore assay
Described as above.
Description: as §3, §4

Test [6] deals with T1, human IL-17A. The test is described as follows: competitive ELISA: biotinylated human IL-17A preincubated with the trispecific molecule, then binding to coated IL-17RA detected (blocked ligand: IL-17RA) [right panel].
The target of test [7] is T2, human serum albumin. The test can be described thus: SPR (MASS-1), trispecific immobilised, HSA injected as last analyte.
Description: as §3, §4
Test [8] has as its target T1, human IL-17A. The test can be described thus: competitive ELISA, blocking of IL-17A/IL-17RA interaction (summary table). A general note: An ELISA detects its analyte on a solid surface through an enzyme-linked reagent.
Description: (§5) Finally, Tetramethylbenzidine solution was added to develop the plate for 5 to 10 minutes and the reaction was stopped with 1 M HCl. The plate was read at 450 nm and 570 nm (reference wavelength).
Test [9] has as its target T1, human IL-17A. The test can be described thus: SPR (Biacore T200), biotinylated antigen captured (Biotin-CAPture), trispecific as analyte.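 Note: multicycle dose-response kinetics, analyte at 0.35–90 nM in running buffer, CAP chip regenerated with fresh antigen each cycle, sensorgrams fitted to a 1:1 binding model.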 In general terms: In SPR one partner is held on a chip, and binding of the other changes the refractive index at the surface.
Description: as §1
Test [10] deals with T3, human TNFα. Described as above.
Description: as §1
The target in test [11] is T2, human serum albumin. The test is described as follows: SPR (summary table), affinity to HSA at pH 5.5.
Description: as §2
The target in test [12] is T2, human serum albumin. The test is described as follows: SPR (MASS-1), HSA immobilised, trispecific as analyte, pH 5.5.
Description: as §2
The target in test [13] is T1, human IL-17A. The test can be described thus: competitive ELISA: IL-17RA coated, biotinylated IL-17A preincubated with trispecific molecule.
Description: as §5
Test [14] addresses T3, human TNFα. The test is described as follows: cell-based or functional assay.
Test [15] deals with T1, human IL-17A. The test is described as follows: cell-based or functional assay.
The target of test [16] is T3, human TNFα. The test is described as follows: cell-based or functional assay. This is another data set of the same source.
Test [17] deals with T3, human TNFα. The test can be described thus: cell-based or functional assay. This is another data set of the same source.
Test [18] concerns the target T3, human TNFα. The test can be described thus: SPR (summary table), affinity to human TNF.
Description: as §1
Test [19] concerns the target T4, cynomolgus serum albumin (cynomolgus monkey, UniProt A2V9Z4 25-608).
T4 construct: also called CSA
The test is described as follows: SPR (MASS-1), CSA immobilised, trispecific as analyte, pH 5.5.
Description: as §2

Test [20] has as its target T4, cynomolgus serum albumin. The test is described as follows: SPR (MASS-1), CSA immobilised, trispecific as analyte, pH 7.4.
Description: as §2
For test [21], the target named is T5, cynomolgus monkey IL-17A (Macaca fascicularis (cynomolgus monkey)).
T5 construct: also called cyno IL-17A; cyno IL17A
The test can be described thus: SPR (Biacore T200), biotinylated antigen captured (Biotin-CAPture), trispecific as analyte.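 Note: multicycle dose-response kinetics, analyte at 0.35–90 nM in running buffer, CAP chip regenerated with fresh antigen each cycle, sensorgrams fitted to a 1:1 binding model.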
Description: as §1

Test [22] addresses T1, human IL-17A. The test is described as follows: cell-based or functional assay. The source holds these as a separate data set.
The target of test [23] is T1, human IL-17A. The test is described as follows: competitive ELISA: biotinylated human IL-17A preincubated with the trispecific molecule, then binding to coated IL-17RA detected (blocked ligand: IL-17RA) [left panel].

B1: A8 (trispecific scDb-scFv) (other)
chain: DIQMTQSPSSLSASVGDRVTITCQSSESVYSNNQLSWYQQKPGQPPKLLIYDASDLASGVPSRFSGSGSGTDFTLTISSLQPEDFATYYCAGGFSSSSDTAFGGGTKLTVLGGGGGSEVQLVESGGGLVQPGGSLRLSCAASGIDFSTYGISWVRQAPGKGLEWIAYIYPDYGITDYASWVNGRFTISLDNAQNTVYLQMNSLRAEDTAVYYCARSGSYYSRGWGAHYFNLWGQGTLVTVSSGGGGSGGGGSGGGGSGGGGSDIQMTQSPSSLSASVGDRVTINCQASESISSWLAWYQQKPGKRPKLLIYKASTLASGVPSRFSGSGSGTDYTLTISSLQPEDFATYYCQGYYLDSSVDDNVFGGGTKLTVLGGGGGSEVQLVESGGGLVQPGGSLRLSCAASGFSLSSNAMGWVRQAPGKGLEYIGIISVGGFTYYASWAKGRFTISRDNSKNTVYLQMNSLRAEDTATYFCARDRHGGDSSGAFYLWGQGTLVTVSSGGGGSGGGGSDIQMTQSPSSLSASVGDRVTITCQASQTINYWLAWYQQKPGKAPKLLIYRASTLASGVPSRFSGSGSGTDFTLTISSLQPEDFATYYCQNYYYSTSRSYGFGGGTKLTVLGGGGGSGGGGSGGGGSGGGGSEVQLVESGGGLVQPGGSLRLSCAASGFSFSSDYWMCWVRQAPGKGLEWIGCIYAGDVDDTDYASWARGRFTISRDNSKNTVYLQMNSLRAEDTAVYYCARVDGFDITYFDLWGQGTLVTVSS
notes: Single chain
For B1, the equilibrium dissociation constant (Kd) – broadly, a measure of binding affinity in units of concentration – in test [1] is 0.483 nM; in test [2] it was 1.42 nM; in test [9] it was 0.483 nM; in test [10], 0.185 nM; in test [11] it was 0.799 nM; in test [12], 0.799 nM. Binding in test [18] was put at a Kd of 0.185 nM. Besides, the koff (commonly the first-order rate constant of dissociation) in test [2] worked out at 0.00044 s⁻¹; in test [9], 8.36e-05 s⁻¹; in [10], 4.06e-05 s⁻¹; in test [12] it was 0.000375 s⁻¹. The on-rate constant (kon) (usually a measure of how fast the partners come together) in test [2] is 310000 M⁻¹ s⁻¹; in test [9], 173000 M⁻¹ s⁻¹; in [10] it was 219000 M⁻¹ s⁻¹; in test [12], 469000 M⁻¹ s⁻¹. The “antigen binding relative to average maximum binding” value in test [3], in [4] and in test [5] was at least 70% throughout. In test [6], the “IC50 (read off the curve)” value was around 5 ng/mL. Also, the “relative binding level compared to average maximum binding” value in [7] is around 70%. In [8], the “rel. IC50 (IC50, secukinumab/IC50, test sample, ng/ml)” value came to 10.2. In test [13], the “rel. IC50 to secukinumab (IC50, secukinumab/IC50, test sample, ng/ml)” value came to 10.2. The “IC50 in L929 assay, cell viability” value in test [14] was 0.03 nM. Also, the “rel. IC50 in L929 assay (IC50, A13/IC50, test sample, nM)” value in [14] came out at 0.4. For the same molecule, in test [15], the “rel. IC50 to secukinumab (ng/ml) in HT-29 assay, +HSA” value turned out to be 304. The “rel. IC50 to secukinumab (ng/ml) in HT-29 assay, -HSA” value in [15] worked out at 44.1. Further, the “rel. IC50 to A13 (nM) in HT-29 assay, +HSA” value in test [16] was determined as 4.6. In addition, the “rel. IC50 to A13 (nM) in HT-29 assay, -HSA” value in test [16] was 3.9. In addition, the “potency to neutralize TNFα compared to A7” value in [17] was around 2 fold.

B2: A5 (trispecific tribody, Fab-(scFv)2) (other)
light: DIQMTQSPSSLSASVGDRVTINCQASESISSWLAWYQQKPGKRPKLLIYKASTLASGVPSRFSGSGSGTDYTLTISSLQPEDFATYYCQGYYLDSSVDDNVFGGGTKLTVLGRTRTVAAPSVFIFPPSDEQLKSGTASVVCLLNNFYPREAKVQWKVDNALQSGNSQESVTEQDSKDSTYSLSSTLTLSKADYEKHKVYACEVTHQGLSSPVTKSFNRGECGGGGSGGGGSDIQMTQSPSSLSASVGDRVTITCQSSESVYSNNQLSWYQQKPGQPPKLLIYDASDLASGVPSRFSGSGSGTDFTLTISSLQPEDFATYYCAGGFSSSSDTAFGGGTKLTVLGGGGGSGGGGSGGGGSGGGGSEVQLVESGGGLVQPGGSLRLSCAASGFSLSSNAMGWVRQAPGKGLEYIGIISVGGFTYYASWAKGRFTISRDNSKNTVYLQMNSLRAEDTATYFCARDRHGGDSSGAFYLWGQGTLVTVSS
heavy: EVQLVESGGGLVQPGGSLRLSCAASGIDFSTYGISWVRQAPGKGLEWIAYIYPDYGITDYASWVNGRFTISLDNAQNTVYLQMNSLRAEDTAVYYCARSGSYYSRGWGAHYFNLWGQGTLVTVSSASTKGPSVFPLAPSSKSTSGGTAALGCLVKDYFPEPVTVSWNSGALTSGVHTFPAVLQSSGLYSLSSVVTVPSSSLGTQTYICNVNHKPSNTKVDKKVEPKSCGGGGSGGGGSDIQMTQSPSSLSASVGDRVTITCQASQTINYWLAWYQQKPGKAPKLLIYRASTLASGVPSRFSGSGSGTDFTLTISSLQPEDFATYYCQNYYYSTSRSYGFGGGTKLTVLGGGGGSGGGGSGGGGSGGGGSEVQLVESGGGLVQPGGSLRLSCAASGFSFSSDYWMCWVRQAPGKGLEWIGCIYAGDVDDTDYASWARGRFTISRDNSKNTVYLQMNSLRAEDTAVYYCARVDGFDITYFDLWGQGTLVTVSS
notes: Trispecific tribody
Turning to B2, the Kd worked out at 0.795 nM in test [19]; 0.575 nM in [1]; 2.69 nM in test [2]; 2.47 nM in test [20]; 0.575 nM in [9]; 0.1 nM in test [10]. The Kd worked out at 0.523 nM in test [21], 1.66 nM in test [11], 1.66 nM in test [12] and 0.1 nM in [18]. In addition, in [8], the “rel. IC50 (IC50, secukinumab/IC50, test sample, ng/ml)” value was 4.9. In test [13], the “rel. IC50 to secukinumab (IC50, secukinumab/IC50, test sample, ng/ml)” value was determined as 4.9. The “IC50 in L929 assay, cell viability” value in test [14] came out at 0.02 nM. For the same molecule, the “rel. IC50 in L929 assay (IC50, A13/IC50, test sample, nM)” value in [14] was 0.9. The “rel. IC50 to secukinumab (ng/ml) in HT-29 assay, +HSA” value in test [15] was determined as 63. The “rel. IC50 to secukinumab (ng/ml) in HT-29 assay, -HSA” value in test [15] was 88.9. Besides, the “rel. IC50 to A13 (nM) in HT-29 assay, -HSA” value in test [16] was 2.4. Also, the “potency to neutralize IL-17A compared to A7” value in [22] is around 2 fold. In test [23], the “IC50 (read off the curve)” value is around 4 ng/mL.
